This note sets out measurements from paper PMC4811774.

Assay [1] has as its target Toc75 POTRA-His (protein fragment encompassing all three Toc75 POTRA domains and a C-terminal hexahistidine tag) (Arabidopsis thaliana) (UniProt Q9STE8). The experiment in a line: pull-down; solid phase binding: increasing amounts of POTRA-His immobilised on Ni-NTA resin, incubated with in vitro translated 35S-labelled proteins in HMK buffer (50 mM Hepes-KOH pH 7.5, 2 mM MgCl2, 40 mM KOAc) with 10 mM imidazole and 0.1% Triton X-100, 30 min, 23°C; phosphorimaging.

Assay [2] addresses TOC translocons in TOC75ΔP1-2#2 chloroplasts (Arabidopsis thaliana | Arabidopsis thaliana (endogenous in chloroplasts)) (UniProt Q9STE8). The experiment in a line: other; apparent Kd, isolated chloroplasts, 0.1 mM ATP and GTP. The following applies: natural protein.
Assay [3] deals with TOC translocons in TOC75ΔP1#2 chloroplasts (Arabidopsis thaliana | Arabidopsis thaliana (endogenous in chloroplasts)) (UniProt Q9STE8). The experiment in a line: saturation binding to isolated chloroplasts; apparent; increasing amounts of urea-denatured preSSU-FLAG-HIS with 10^7 isolated chloroplasts, 0.1 mM ATP and GTP, 26°C, 5 min (early import intermediate); chloroplasts reisolated through Percoll, anti-FLAG immunoblot, non-linear regression.

Assay [4] addresses TOC translocons in TOC75 chloroplasts (Arabidopsis thaliana | Arabidopsis thaliana (endogenous in chloroplasts)) (UniProt Q9STE8). Described as above.

The substance “[35S]preSSU (from UniProt P10795 1-180) (natural protein)” registered a maximum binding, percent of added radiolabeled protein in assay [1] of 77%.

For the substance “preSSU-FLAG-HIS (from UniProt P10795 55-180)”, in assay [2], the Kd was 126 nM.

As for “preSSU-FLAG-HIS (from UniProt P10795 55-180) (natural protein)”, the Kd in assay [3] came out at 188 nM; in assay [4], 159 nM.
